The series relates to MS2 coat protein. Description: apparent KD of MS2 coat protein; designed switch direction (-1 OFF switch, 1 ON switch): -1; higher = weaker reporter binding. Put shortly:
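Each step of the titration lasted 0.8–1.5 h at the lowest concentration and 10–20 min at the highest. The protein, SNAP-549-labelled MS2 coat protein, went from 0.7 or 1.5 nM doubling to 3 µM over RNA switches transcribed on Illumina chips by stalled E. coli RNA polymerase. Normalised cluster fluorescence was curve-fitted, and the per-design median over clusters is given as apparent KD.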

The mark [1] stands for this setting: Eterna round: R95, input ligand: microRNA oligo, concentration not stated.
[2] abbreviates: input ligand: microRNA oligo, concentration not stated.
Setting [3] is: Eterna round: R95, input ligand: FMN 200 uM.
[4] abbreviates: Eterna round: R95, input ligand: none.

This is an account of results in the supplement of paper PMC9170038.

Take “CUCAGGGUGCAGGAUAUCAUGGGAUAUCCCACCUGAGAAGGGCGAACAUGAGGAUCACCCAUGUGAGUGGGAGA [Eternabot (L2) Solution 85] (Eterna round: R97, puzzle: Exclusion 6)”: the “apparent KD of MS2 coat protein” value by setting is: (input ligand: FMN 200 uM) 488 nM; (input ligand: none) 441 nM.
For “CUCAUGUCAGGAUAUCAGGCAGGAAGCUGCCAAAAGUGGGAUGAGAAGGGACAUGAGGAUCACCCAUGUAAAUA [Mazasoti] (Eterna round: R97, puzzle: Exclusion 4)”, in that order: 355 nM and 218 nM.
The matching figures for “CUCAUGUCAGGAUAUCUACAUUAAAUUGGUAACCAAGCAUGAGAGAAGGGACAUGAGGAUCACCCAUGUAAAAC [Cegeange] (Eterna round: R97, puzzle: Exclusion 4)”: 44 nM and 27.5 nM.
As for “CUCAUGUGAGGAUAUCACAUAGCGUCACGGCUGUAACAUUUUGAGAAGGCACAUGAGGAUCACCCAUGUGACAC [Eternabot (L2) Solution 79] (Eterna round: R97, puzzle: Exclusion 4)”, the “apparent KD of MS2 coat protein” value came to 104 nM (input ligand: FMN 200 uM) and 46.6 nM (input ligand: none).
As for “CUCAUGUGAGGAUAUCAGUAGUGAUACGAUAGUAUUACUGCUGAGAAGGUACAUGAGGAUCACCCAUGUUCCUC [Exclusion 4 - Mod Omei Ex4 344 mod 4 v.3] (puzzle: Exclusion 4)”, the “apparent KD of MS2 coat protein” value under setting [1] was 26.9 nM.
Still for that read-out and setting: then “CUCAUGUGAGGAUAUGUGAUCAACCUUCUGUAUAGAUGAUGACAGAAGGCACAUGAGGAUCACCCAUGUAGAUC [Ex4 - 3 - 18] (puzzle: Exclusion 4)”, with 46.7 nM.
On to “CUCCUACUUGUAGGAUAUCAGAGAUAACAUGAGGAUCACCCAUGUUGGGUCAUCAACUCAGUCGGUGAGAAGGACAGAAGUUGG [Eternabot solution 42] (Eterna round: R96, puzzle: Exclusion NG 2)”, for which the “apparent KD of MS2 coat protein” value was 96.1 nM (input ligand: FMN 200 uM), 68.6 nM under setting [2] and 63.2 nM (input ligand: none).
For “CUCCUCAUGGCGCCUAAACACAUGAGGAUCACCCAUGUAUAGGCUUUUUGCCGUCUUAUAAUAAAACCGAGGAUGCG [Rianza] (puzzle: Sensor v3, turn-off variant 1)”, the “apparent KD of MS2 coat protein” value was 28.7 nM under setting [3], 276 nM under setting [1] and 21.9 nM under setting [4].
On to “CUCCUGUAAGGAUAUCUGACAAGUGACGAAAGUCACAGUUCAGAGAAGGUACAUGAGGAUCACCCAUGUAGAAC [Exclusion 4 - Mod Brourd Ex 4-3: 41 v.2] (puzzle: Exclusion 4)”, for which the “apparent KD of MS2 coat protein” value under setting [1] came to 31 nM.
“CUCGAGUCAGGAUAUGUUCCGCAUGGCAACAUGCUAUAAGAAUAGAAGGGACAUGAGGAUCACCCAUGUUAACA [Eternabot (Original) Solution 12] (Eterna round: R97, puzzle: Exclusion 4)”: the “apparent KD of MS2 coat protein” value amounted to 162 nM (input ligand: FMN 200 uM) and 44.7 nM (input ligand: none).
As for “CUCGUGCAGCAAAGCUGUACGAGUACAUGAGGAUCACCCAUGUAGGAUAUGGUACGCAAAGCGUGCUAGAAGGACGUGUGUAAG [Mat - Exclusion NG 3 - Mod of JL - D92] (Eterna round: R96, puzzle: Exclusion NG 3)”, the “apparent KD of MS2 coat protein” value was found to be 118 nM (input ligand: FMN 200 uM), 33.4 nM under setting [2] and 47.7 nM (input ligand: none).
In the case of “CUCGUGCAGCAAAGCUGUACGAGUACAUGAGGAUCACCCAUGUAGGAUAUGGUACGCAAAGCGUGCUAGAAGGAUAUGUGUAGG [Mat - Exclusion NG 3 - Mod of JL - D87] (Eterna round: R96, puzzle: Exclusion NG 3)”, the “apparent KD of MS2 coat protein” value (input ligand: FMN 200 uM) was found to be 61.5 nM, the “apparent KD of MS2 coat protein” value under setting [2] came to 32.7 nM and the “apparent KD of MS2 coat protein” value (input ligand: none) stood at 50.5 nM.
As to “CUCGUGUGAGGAUAUCCUCUUAUAUAACAAAGGUUGAAGCAGGAGAAGGCACAUGAGGAUCACCCAUGUGCAUA [EX4 C.6] (Eterna round: R97, puzzle: Exclusion 4)”, the “apparent KD of MS2 coat protein” value (input ligand: FMN 200 uM) came to 46.4 nM and the “apparent KD of MS2 coat protein” value (input ligand: none) is 16.9 nM.
Take “CUCUGCACGCUGCGGUCCUACAUGAGGAUCACCCAUGUGGUCUGGUGGCGUGGGUCGCCGGACUUGGCUCGUCUUGA [salish99_S_TOV1_R5_046] (Eterna round: R97, puzzle: Sensor, turn-off variant 1)”: the “apparent KD of MS2 coat protein” value came out at 19 nM (input ligand: FMN 200 uM) and 18.7 nM (input ligand: none).
Take “CUCUUGUUAGGAUAUCAAACCAGUGACGGAACCACUGGAAGUGAGAAGGGACAUGAGGAUCACCCAUGUAAGAA [Edraate] (puzzle: Exclusion 4)”: the “apparent KD of MS2 coat protein” value under setting [1] came out at 52.3 nM.
In the case of “CUGAAAUUCGUAAGGAUAUGUUCCAUCAAAUAGGAGCAGAAGGUACAUGAGGAUCACCCAUGUCAGUAGAUCCA [Eternabot (L1) Solution 47] (Eterna round: R97, puzzle: Brourd's mod of Exclusion 4)”, the “apparent KD of MS2 coat protein” value (input ligand: FMN 200 uM) stood at 130 nM and the “apparent KD of MS2 coat protein” value (input ligand: none) worked out at 40.2 nM.
Consider “CUGAACCCGGUAGGAUAUAUUGUGGGCAAGCAUGGAACGACAUGAGGAUCACCCAUGUAAUUUAGGUAGAAGGGCCAAGAGAUU [Excl-NG2-LRO10] (Eterna round: R96, puzzle: Exclusion NG 2)”, for which the “apparent KD of MS2 coat protein” value reads like this: (input ligand: FMN 200 uM) 74.2 nM; under setting [2], 41.8 nM; (input ligand: none) 73.7 nM.
Turning to “CUGAAUCGAGGAUAUACAUGAGGAUCACCCAUGUAUACUGUCUUGGUGAGAGUCCCGUGUAGAAGGCGACAGGC [EX3 B.6] (Eterna round: R97, puzzle: Exclusion 3)”, the “apparent KD of MS2 coat protein” value is 60.1 nM (input ligand: FMN 200 uM) and 35.9 nM (input ligand: none).
For the sequence “CUGAGCAGACGAAGAUCCAACAUGAGGAUCACCCAUGUCUCAAAAGCUUUUUGCUCGUCUUAUCCUUCUCUGUUCUC [Reisedzaqu] (puzzle: Sensor v3, turn-off variant 1)”, the “apparent KD of MS2 coat protein” value reads like this: under setting [3], 16 nM; under setting [1], 176 nM; under setting [4], 13 nM.
The matching figures for “CUGAGCAGACGGAGAUCCAACAUGAGGAUCACCCAUGUCUCAAAAGCUUUUUGCUCAUCUUAUCGUACCUUGGUGCU [JL ViennaUCT Edcesobi mod 1] (puzzle: Sensor v3, turn-off variant 1)”: 406 nM, 20.2 nM and 445 nM.
The matching figures for “CUGAGCAGACGGAGAUCCAACAUGAGGAUCACCCAUGUCUCAAAAGCUUUUUGCUCAUCUUAUUGUACCUUGGUGCU [JL ViennaUCT Edcesobi mod 2] (puzzle: Sensor v3, turn-off variant 1)”: 391 nM, 17.6 nM and 342 nM.
Regarding “CUGAGCAGACGGAGAUCCAACAUGAGGAUCACCCAUGUCUCAGAAGCUUUUUGCUCGUCUUAUCCUCCUCUGUUCAC [Elimod 21 - Jieux - Sensor, turn-off variant 1] (Eterna round: R97, puzzle: Sensor, turn-off variant 1)”, the “apparent KD of MS2 coat protein” value by setting is: (input ligand: FMN 200 uM) 103 nM; (input ligand: none) 119 nM.
The matching figures for “CUGAGCUGAGGAUAUACAUGAGGAUCACCCAUGUUUUGUAGAUAGUGAAGAAGUAGAUGUAGAAGGCAGUUCGG [Mod of JL 24 - Jieux - Exclusion 3] (Eterna round: R97, puzzle: Exclusion 3)”: 206 nM and 146 nM.
